Test: label from the status in PepcDB records

Sequence	protein production
MRVMRICLVGLGAVGQGFLRAVQMKGEYLRERYGLDIRFTGVADSSGALHDPDGLDIRGVLEHKKRAGLGSHPSGYEGMTGDELLDEAEYDCLVEATPTNIEDGEPGRSLVLKAMGDGKHVVTSNKGHLALFYSELMEAASEAGVEFMFEASVGGAMPIINLARETLASCTIESVIGILNGTTNFILSRMASEGSSYRQALIEAQELGIAETNPAQDVEGTDAACKAVIIANSILGRPCTLRDVRVEGITGITQGAIELAAQEGYLIKLIAEISGDRLEVGPRLVRMGSPYAVDGTLNMATLRTDLAGEVTAVGRGAGSLETASAMLTDTITIWRKSGGR	failed
MSYNVAILMSTYNGMDYLREQIESIRSQTYKQWNLYIRDDGSSDNTIDLIKTFVHQDTRIHFINADKQVNRGVKRSFLNLLSSVKADFYMFCDQDDYWLPNKVKLTLDAMISDYHNKPRLVFTNMNLVDSNLKVLDKASLSAVNISYWTSKDQLMFDNIVTGCTVMINNQLKQYVFPISAKKIVMHDWYIAQLASQLGDIQYVTDPTILYRQHESNQVGVNKSLFGKVKKLARFNDFQTGVILQISQGRLTQKKSQVVFSKTTQAFLNWNFTCPLILKVLPIIQNNFKKHTWPGTIALNLALLRRKKS	failed
MRVISRNLTAWSAGLIVVAIFLGAWLSHPLHRISGFAVTPAPVGTESLPPKASYSSRFASSDLNDFVHSSAVTALPGGDLMSVWFAGSREGAGDVEIRTSRFDAQAEEWGGEQVLATRESTQTGTGKYIRKLGNPVIALAPDNRLWLFYVSVSVGGWAGSSVNAMVSSDMGASWSAPRQLVTSPFLNISTLVRGAPVFHADGSIGLPVYHEFLGKFAEYLYLSADGEVIDKFRISRGKNSLQPTVVPLDGQRAVALLRYAGETFHRVLASRTEDGGQTWSEPYPLAPSNPNSSLAAVGVPGKGLLVALNDLREGRFKLSLYSTDEQMKVWRPLPDLDKSPDPLGTPFSLEVYKEVIGQGFRASSGALRQPMEAEFLSNLDQRVCAPQGCDFEYEYPYFIRSPDGLYHLVYSWNNTFIKHVSFNEAWLAEQLL	failed
MPLLTIGDQFPAYQLTALIGGDLSKVDAKQPGDYFTTITSDEHPGKWRVVFFWPKDFTFVCPTEIAAFSKLNDEFEDRDAQILGVSIDSEFAHFQWRAQHNDLKTLPFPMLSDIKRELSQAAGVLNADGVADRVTFIVDPNNEIQFVSATAGSVGRNVDEVLRVLDALQSDELCACNWRKGDPTLDAGELLKASA	not failed
MILRSWARGVTLATICMFSLSSGVILAKNNRPTPLPTYQYPDVYNNYLQPVATAIDYHSGMVYLFNYENDKLIIVDPTSLSGWPGNVPLQHTLVFPEGDKIFITSDNTEEHAAYIIILKVNDINWDAGTVSLAVETVVAADNPGTPTEFPFVEPVNNVQAIPNWLVGRGTTQIHGPTILPYSDFVYLTELTSDRIRVINRKTNEFVSGVDPIAIPGYTEQTHGINFNRSGTIGLGTGYFFDNSVIDVYKPNRETGELQTIGQIRLGDEKRHAAFTHFVYWLDERYAVTASMQFDKTSLTPTTTKKIIPPSVWLLDTLEGTATKILDHTNHANGKGIFRSPSDIAVVNGKLYIAEEDSLDYTFANDGYISVFDLTDRYKPRFLKRLKPGRELPTGYAVAHTISPTPDNRYLIVASWVSGYVLKIDTETDTVVKIWGPNDGLIKPHGIYTAGGLR	failed
MREMQIMSQPEQSRLDLFIDRMVSQRACLEHAIAQTAGLSGPVYELGLGNGRTYHHLRQHVQGREIYVFERAVASHPDSTPPEAQLILGDIRETLPATLERFGATASLVHADLGGHNREKNDRFARLISPLIEPHLAQGGLMVSSDRMYFEGLEELPLPPGAVVGRCFIYRRG	not failed
MEQNSGTSSASGRALFPLYAITFIGTLGFGIILTFLVFLVTDYGGNALVYGILASTYPAFQLIGAPVLGRWSDLYGRKKILLLSQIGTMLAWIIFFAALFFPVIPLIEVRSDLLGTFTITLPLLILFLARALDGATGGNVSVANAYLADLTSEEERNKNYGRMSVASNLGYVFGPAIAGVLGTTAYGEILPVSAALVISIIGTLIVLFLLPDSRPCAIEEYPESTGIRKILGQEQKECYQVEAGSKITFREVFKLEYIPFMLVVYFLIFLGFNIYYTAFPIFAVVALEWSPAELGIYFSVISALMAFVQGPVLAKLARRYRESIMVVGGGFILGLQFILIVSGDYLLLYLAAVFFAFGNGIMWPSILSILSKFAGKKYQGSVQGFAMSASSLASIIGLLAGGFLYTQFGVIAFLIAAAIIYLVVFLSFRLLRIEKEKLIETEAAKTPV	failed

— a protein production outcome set (Wang et al. 2014)
